Test results as given in patent US12371675B2, “Process and microorganism for synthesis of adipic acid from carboxylic acids” (THE GOVERNING COUNCIL OF THE UNIVERSITY OF TORONTO, priority 2015, dated 2025).

B1: EREDMT: 2-enoate reductase (ERED) from Moorella thermoacetica ATCC 39073 (protein)
chain: MVVAYTRLFEPIKIGKVEIKNKIAMAPMGVLGLATQDGCFSKRVVDYYVERAKGGTGLIITSVTKVDNEIERFKAGAVPVATANPLHFIATAGELTERVHAYGTKIFLQLGMGFGRVAAPILLESHPVAPSALPNFWDPSITCRELTTAEVETLVQRASEAAEIAVEAGFDGVEIHAMHEGYLLDQFTIALFNRRGDKYGGALEDRLTFPIEIVRAIKDRVGKDFPVVLRFSIKNYIKDWRQGGLPGENFQEKGRDVEEALAAAKILEGAGYDGFDADAGSYDAWYWAHPPVYQKHGCYLPLTQRLKEVVKVPVIVAGRLEIPELAEEALVKGQADMIAIGRGLLTDPYWVNKVMTGRSKNIRPCIGCHDGCLGRGFLGRPLSCTVNPACGREEEYAIDRAPEAKQVMVIGGGVAGMEAARVAALRGHRVSLYEKSDRLGGHVVEAAVPDFKADDGRLLEWYKTELGELQVEIHLNQEVTPEFVEEKNPDVVVVATGSTPAIPDIPGVNKDKVTTVSDLLLGKKQAGDRVVIIGGGLAGCETALWLAQQGKDVTIIEILDDLMRAGIPVPYMNRMMLLDLLKMNGVKWLTETSVLEVTDDGVTLIGKTYQRSPLPADTVILAVGFAADQRLYNALRDKIPNLYLIGDSREPRNILAAIWEGYEVGRGI
B2: EREDCL: 2-enoate reductase (ERED) from Clostridium ljungdahlii DSM 13528 (protein)
chain: MKNKSLFQPIKIGKMEVKNKISMAPMGAFGLVDNEGCYNQRAIDYYVERAKGGTGLIITSITKVENELDKVVPGIIPVISTNPGRFLMTSSEMTERVHAYGAKIFLQLTMGFGRSGAPGTLLTSQPVSASDIPNYWDPTVTCRALTTSEVEWIVSKFIEGADIAQKADFDGVEIHAVHEGYLLDQFTLSIFNRRTDKYGGDLRGRLQLPIEIVQGIKARLGDDFPVGLRYSVKSCIKDWRQGGLPDEDYLEKGRDLKEGLDAAKILEAAGYDELNTDLGTYDAWYWSHPPIYQKNGLYLPYTKELKKVVKIPVIVAGKLGIPEDAEKALDDKAADMIGLGRPLLADPYWPKKVLSDNSERIRPCIGCHTGCLGRGFEGKPLSCTVNPAVGRERYYEIKPTLTPKKVMVVGGGVAGMEAARIIKMRGHDVTIYEGTDKLGGVIIPGSVPDFKVDDRRLIDWYKSEIKELEVKVNFNTKVTEELVEEEKPDVVIIATGAKEIKINVPGIEKDKVITALELLNDNKKVGNDVLMVGGGLVGCEAALYLAKQGKNVTIVEAKDTLLNSSKPIPHMNKIMLIDLLNMYNVKAITNNSLLEVTDKGAVLINNKFKKQEVSADTVTIAVGFKSDRELYNKLNGNIADLYLIGDAYQSANIMNAIWSANEIGLNC

Tests used:
[1] = Whole-cell biotransformation of muconic acid by E. coli expressing EREDs; type: cell-based; conditions: 0.7 mM, 24-hr incubation
Procedure: After a 24-hr incubation, no muconic acid or 2-hexenedioic acid were detected in the culture, and a 99% yield of adipic acid was obtained (FIGS. 8a, 8b, and 8c). […] The 3-hexenedioic acid-like compound appears to be an inefficient substrate for these EREDS. This is similar to the mutated 2,4-dienoyl-CoA reductases from E. coli, which catalyze hydrogenation of 2,4-dienoyl CoA into 3-enoyl CoA (Tu, X., Hubbard, P. A., Kim, J. J. P. & Schulz, H. Two distinct proton donors at the active site of Escherichia coli 2,4-dienoyl-CoA reductase are responsible for the formation of different products. Biochemistry 47, 1167-1175 (2008).).

[2] = Whole-cell anaerobic biotransformation by E. coli expressing EREDs; type: cell-based; conditions: 20 mM 2-hexenedioic acid

Row | Molecule | yield of adipic acid from cis,cis-muconic acid [1] | yield of adipic acid from trans,trans-muconic acid [1] | time to complete conversion of 2-hexenedioic acid to adipic acid [2]
1 | B1 | 99% | 99% | 6 h
2 | B2 |  | 99% | 48 h
